The results in this text go back to the supplement of paper PMC9112550, “Optimization of the antimicrobial peptide Bac7 by deep mutational scanning” (BMC Biology, 2022).
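Further: peptides expressed intracellularly from a pBAD plasmid library in pooled LB shake-flask culture, induced with 0.3% L-arabinose, DNA abundance read by NGS, three biological replicates, DESeq2 with apeglm shrinkage.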

The data set deals with Escherichia coli TOP10. The data set can be described thus: shrunken log2 fold change of peptide-encoding DNA abundance (4.5 h post-induction vs induction); higher = less antimicrobial activity (less host growth inhibition). The conditions noted are these: time post-induction: 4.5 h; library: site-saturation at positions 5, 18, 19, 20.
RRIRVRPPRLPRPRPRPKRCPRP: the “shrunken log2 fold change” value was -0.0118.

In the case of RRIRFRPPRLPRPRPRPCGIPRP, the “shrunken log2 fold change” value was -0.168.

On to RRIRYRPPRLPRPRPRPISQPRP, for which the “shrunken log2 fold change” value was -0.299.

Take RRIRDRPPRLPRPRPRPMWFPRP: the “shrunken log2 fold change” value worked out at 0.0563.

Consider RRIRWRPPRLPRPRPRPIDDPRP, for which the “shrunken log2 fold change” value was -0.152.

In the case of RRIRNRPPRLPRPRPRPVDPPRP, the “shrunken log2 fold change” value is 0.0584.

As to RRIRERPPRLPRPRPRPLSTPRP, the “shrunken log2 fold change” value was -0.48.

Turning to RRIRKRPPRLPRPRPRPHSMPRP, the “shrunken log2 fold change” value stood at 0.0496.

With RRIRMRPPRLPRPRPRPSKNPRP, the “shrunken log2 fold change” value came to 0.277.

For the sequence RRIRRRPPRLPRPRPRPVTDPRP, the “shrunken log2 fold change” value came out at 0.0723.

As for RRIRFRPPRLPRPRPRPPHRPRP, the “shrunken log2 fold change” value was found to be 0.324.

In the case of RRIRKRPPRLPRPRPRPIYPPRP, the “shrunken log2 fold change” value was -0.0542.

Take RRIRLRPPRLPRPRPRPMRPPRP: the “shrunken log2 fold change” value amounted to 1.44.

Regarding RRIRWRPPRLPRPRPRPRCMPRP, the “shrunken log2 fold change” value is 0.204.

On to RRIRYRPPRLPRPRPRPIWPPRP, for which the “shrunken log2 fold change” value is -0.00922.

For the sequence RRIRMRPPRLPRPRPRPCHAPRP, the “shrunken log2 fold change” value is -0.00133.

RRIRLRPPRLPRPRPRPAKHPRP: the “shrunken log2 fold change” value was -0.221.

Regarding RRIRSRPPRLPRPRPRPIRCPRP, the “shrunken log2 fold change” value worked out at 0.00778.

Turning to RRIRRRPPRLPRPRPRPSCRPRP, the “shrunken log2 fold change” value came to 0.0338.

Regarding RRIRARPPRLPRPRPRPKWGPRP, the “shrunken log2 fold change” value amounted to 0.418.

As to RRIRNRPPRLPRPRPRPPTFPRP, the “shrunken log2 fold change” value came to 0.145.

Take RRIRMRPPRLPRPRPRPELHPRP: the “shrunken log2 fold change” value is 0.397.

For the sequence RRIRQRPPRLPRPRPRPCMYPRP, the “shrunken log2 fold change” value was -0.166.

With RRIRTRPPRLPRPRPRPRFAPRP, the “shrunken log2 fold change” value was 0.37.

With RRIRTRPPRLPRPRPRPYCFPRP, the “shrunken log2 fold change” value was -0.301.

As for RRIRPRPPRLPRPRPRPPDSPRP, the “shrunken log2 fold change” value stood at 0.326.

Consider RRIRFRPPRLPRPRPRPSIWPRP, for which the “shrunken log2 fold change” value was -0.111.

For RRIRKRPPRLPRPRPRPAWQPRP, the “shrunken log2 fold change” value was determined as 0.714.

With RRIRIRPPRLPRPRPRPWLPPRP, the “shrunken log2 fold change” value was -0.325.

For RRIRFRPPRLPRPRPRPFIEPRP, the “shrunken log2 fold change” value was -0.894.

As for RRIRCRPPRLPRPRPRPWAYPRP, the “shrunken log2 fold change” value is -0.508.

As for RRIRIRPPRLPRPRPRPWEPPRP, the “shrunken log2 fold change” value is -0.146.

With RRIRYRPPRLPRPRPRPDSNPRP, the “shrunken log2 fold change” value was -2.93.

For RRIRRRPPRLPRPRPRPEQEPRP, the “shrunken log2 fold change” value was determined as 0.0308.

RRIRSRPPRLPRPRPRPYLYPRP: the “shrunken log2 fold change” value was -0.065.

Regarding RRIRERPPRLPRPRPRPNGNPRP, the “shrunken log2 fold change” value is -0.104.

Consider RRIRKRPPRLPRPRPRPMALPRP, for which the “shrunken log2 fold change” value was -0.00663.

For RRIRDRPPRLPRPRPRPNSCPRP, the “shrunken log2 fold change” value amounted to 0.0563.

RRIRHRPPRLPRPRPRPMAEPRP: the “shrunken log2 fold change” value is -0.165.

Take RRIRNRPPRLPRPRPRPKPIPRP: the “shrunken log2 fold change” value amounted to 0.202.

In the case of RRIRTRPPRLPRPRPRPNDWPRP, the “shrunken log2 fold change” value is -0.385.

As for RRIRHRPPRLPRPRPRPNFWPRP, the “shrunken log2 fold change” value came out at 0.257.

In the case of RRIRDRPPRLPRPRPRPGHVPRP, the “shrunken log2 fold change” value was -0.0651.

In the case of RRIRYRPPRLPRPRPRPFNLPRP, the “shrunken log2 fold change” value is -0.271.

For the sequence RRIRERPPRLPRPRPRPWFCPRP, the “shrunken log2 fold change” value is -0.375.

RRIRVRPPRLPRPRPRPENKPRP: the “shrunken log2 fold change” value is -0.134.

In the case of RRIRIRPPRLPRPRPRPVFGPRP, the “shrunken log2 fold change” value is -0.0092.

Consider RRIRSRPPRLPRPRPRPLIAPRP, for which the “shrunken log2 fold change” value amounted to 0.0475.

For RRIRRRPPRLPRPRPRPCTTPRP, the “shrunken log2 fold change” value turned out to be 0.212.

Consider RRIRLRPPRLPRPRPRPHLGPRP, for which the “shrunken log2 fold change” value was -0.105.

Take RRIRFRPPRLPRPRPRPRALPRP: the “shrunken log2 fold change” value was found to be 0.148.

As to RRIRTRPPRLPRPRPRPWWMPRP, the “shrunken log2 fold change” value was -0.133.

As for RRIRARPPRLPRPRPRPEDVPRP, the “shrunken log2 fold change” value was 0.931.

In the case of RRIRCRPPRLPRPRPRPGRSPRP, the “shrunken log2 fold change” value was 0.0654.

As for RRIRRRPPRLPRPRPRPILYPRP, the “shrunken log2 fold change” value came out at 0.143.

For RRIRCRPPRLPRPRPRPWSSPRP, the “shrunken log2 fold change” value was determined as 0.615.

For the sequence RRIRDRPPRLPRPRPRPHYGPRP, the “shrunken log2 fold change” value was -0.192.

RRIRMRPPRLPRPRPRPVRRPRP: the “shrunken log2 fold change” value was 0.447.

Turning to RRIRSRPPRLPRPRPRPLECPRP, the “shrunken log2 fold change” value is -0.267.

Regarding RRIRFRPPRLPRPRPRPSNGPRP, the “shrunken log2 fold change” value is -0.238.

With RRIRYRPPRLPRPRPRPLFDPRP, the “shrunken log2 fold change” value turned out to be 0.802.

As for RRIRHRPPRLPRPRPRPMPKPRP, the “shrunken log2 fold change” value was found to be 0.193.

Regarding RRIRPRPPRLPRPRPRPPHDPRP, the “shrunken log2 fold change” value came out at 0.572.

Consider RRIRVRPPRLPRPRPRPIVEPRP, for which the “shrunken log2 fold change” value is -0.0668.

On to RRIRYRPPRLPRPRPRPHGAPRP, for which the “shrunken log2 fold change” value was -0.0794.

Regarding RRIRRRPPRLPRPRPRPCEFPRP, the “shrunken log2 fold change” value was -0.109.

Take RRIRTRPPRLPRPRPRPHRKPRP: the “shrunken log2 fold change” value is -0.0762.

On to RRIRVRPPRLPRPRPRPAKNPRP, for which the “shrunken log2 fold change” value was 0.153.

On to RRIRLRPPRLPRPRPRPLRMPRP, for which the “shrunken log2 fold change” value worked out at 0.222.

With RRIRVRPPRLPRPRPRPTSMPRP, the “shrunken log2 fold change” value is -0.192.

On to RRIRMRPPRLPRPRPRPHVSPRP, for which the “shrunken log2 fold change” value was -0.0138.

For RRIRFRPPRLPRPRPRPWCAPRP, the “shrunken log2 fold change” value worked out at 0.185.

Regarding RRIRWRPPRLPRPRPRPKAKPRP, the “shrunken log2 fold change” value came to 0.166.

On to RRIRIRPPRLPRPRPRPITIPRP, for which the “shrunken log2 fold change” value is -0.436.

As to RRIRARPPRLPRPRPRPPWTPRP, the “shrunken log2 fold change” value came to 0.385.

Consider RRIRWRPPRLPRPRPRPNWNPRP, for which the “shrunken log2 fold change” value was -0.0303.

Take RRIRVRPPRLPRPRPRPSFVPRP: the “shrunken log2 fold change” value was -0.422.

On to RRIRHRPPRLPRPRPRPYHNPRP, for which the “shrunken log2 fold change” value is -0.853.

Turning to RRIRDRPPRLPRPRPRPVTNPRP, the “shrunken log2 fold change” value came out at 0.102.

As for RRIRGRPPRLPRPRPRPMWVPRP, the “shrunken log2 fold change” value turned out to be 0.168.

Consider RRIRHRPPRLPRPRPRPKWIPRP, for which the “shrunken log2 fold change” value was -0.779.

For the sequence RRIRQRPPRLPRPRPRPNHPPRP, the “shrunken log2 fold change” value is -0.249.

Take RRIRERPPRLPRPRPRPVYKPRP: the “shrunken log2 fold change” value is -0.348.

On to RRIRARPPRLPRPRPRPGCKPRP, for which the “shrunken log2 fold change” value turned out to be 0.321.

As to RRIRRRPPRLPRPRPRPIYYPRP, the “shrunken log2 fold change” value is -0.192.

In the case of RRIRVRPPRLPRPRPRPPINPRP, the “shrunken log2 fold change” value was 0.0484.

Take RRIRPRPPRLPRPRPRPYYPPRP: the “shrunken log2 fold change” value is -0.439.

Turning to RRIRMRPPRLPRPRPRPCHQPRP, the “shrunken log2 fold change” value is -0.0062.

For RRIRIRPPRLPRPRPRPARKPRP, the “shrunken log2 fold change” value came out at 0.462.

Regarding RRIRLRPPRLPRPRPRPVQTPRP, the “shrunken log2 fold change” value was 0.102.

For RRIRKRPPRLPRPRPRPSGQPRP, the “shrunken log2 fold change” value came out at 0.244.

With RRIRNRPPRLPRPRPRPASQPRP, the “shrunken log2 fold change” value is 0.545.

With RRIRDRPPRLPRPRPRPKEPPRP, the “shrunken log2 fold change” value is 0.00859.

As for RRIRERPPRLPRPRPRPIKRPRP, the “shrunken log2 fold change” value is -0.171.

As for RRIRLRPPRLPRPRPRPQHDPRP, the “shrunken log2 fold change” value is -0.0854.

For the sequence RRIRYRPPRLPRPRPRPRYLPRP, the “shrunken log2 fold change” value was -0.176.

Consider RRIRLRPPRLPRPRPRPVRCPRP, for which the “shrunken log2 fold change” value was 0.0127.

For RRIRVRPPRLPRPRPRPCEVPRP, the “shrunken log2 fold change” value is -0.0542.

With RRIRNRPPRLPRPRPRPESTPRP, the “shrunken log2 fold change” value is -0.0329.

For RRIRFRPPRLPRPRPRPVYKPRP, the “shrunken log2 fold change” value was -0.295.

Take RRIRVRPPRLPRPRPRPICFPRP: the “shrunken log2 fold change” value amounted to 0.0059.

As for RRIRQRPPRLPRPRPRPPAEPRP, the “shrunken log2 fold change” value came to 0.589.

Regarding RRIRIRPPRLPRPRPRPGVMPRP, the “shrunken log2 fold change” value is -0.346.

As for RRIRLRPPRLPRPRPRPTFRPRP, the “shrunken log2 fold change” value was determined as 0.0593.

Turning to RRIRERPPRLPRPRPRPEHCPRP, the “shrunken log2 fold change” value was -0.014.

As to RRIRQRPPRLPRPRPRPYDMPRP, the “shrunken log2 fold change” value was -0.626.

RRIRSRPPRLPRPRPRPELEPRP: the “shrunken log2 fold change” value amounted to 0.54.

In the case of RRIRRRPPRLPRPRPRPWLVPRP, the “shrunken log2 fold change” value was -0.0986.

As for RRIRCRPPRLPRPRPRPKACPRP, the “shrunken log2 fold change” value is 0.0182.

For RRIRYRPPRLPRPRPRPNCEPRP, the “shrunken log2 fold change” value was -0.144.

For the sequence RRIRIRPPRLPRPRPRPKNLPRP, the “shrunken log2 fold change” value was -0.0922.

On to RRIRIRPPRLPRPRPRPHQFPRP, for which the “shrunken log2 fold change” value is -0.525.

Regarding RRIRNRPPRLPRPRPRPNLNPRP, the “shrunken log2 fold change” value was -0.557.

In the case of RRIRARPPRLPRPRPRPCQEPRP, the “shrunken log2 fold change” value was found to be 0.094.

On to RRIRERPPRLPRPRPRPQETPRP, for which the “shrunken log2 fold change” value worked out at 0.0209.

On to RRIRLRPPRLPRPRPRPHFGPRP, for which the “shrunken log2 fold change” value stood at 0.0847.

As to RRIRSRPPRLPRPRPRPFVAPRP, the “shrunken log2 fold change” value is -0.0664.

Consider RRIRERPPRLPRPRPRPTNDPRP, for which the “shrunken log2 fold change” value was 0.127.

For the sequence RRIRHRPPRLPRPRPRPMRGPRP, the “shrunken log2 fold change” value worked out at 0.384.

As for RRIRRRPPRLPRPRPRPMVFPRP, the “shrunken log2 fold change” value turned out to be 0.182.

Consider RRIRPRPPRLPRPRPRPSENPRP, for which the “shrunken log2 fold change” value was -0.0512.

For the sequence RRIRIRPPRLPRPRPRPEEHPRP, the “shrunken log2 fold change” value amounted to 0.023.

For RRIRQRPPRLPRPRPRPPYAPRP, the “shrunken log2 fold change” value is -0.189.

In the case of RRIRARPPRLPRPRPRPQAHPRP, the “shrunken log2 fold change” value was 0.324.

On to RRIRDRPPRLPRPRPRPSHLPRP, for which the “shrunken log2 fold change” value was -0.248.
